According to article PMC11842775:

Target: 6xHis-tagged Mac3-V570R
Test: in vitro aggregation assay (turbidity, OD320 over time)
Conditions: read at t = 60 min; purified 6xHis-tagged proteins; parent: est. 0.81; read off a plot

6xHis-tagged Mac3 V570R
response: 0.5 OD320
